Assays:
[1] = tested on: CTSL1_1 FRET substrate (ALFKSSFP)
[2] = tested on: CTSL1_2 8-mer FRET substrate Mca-ALFFSSPPK-Dnp
[3] = tested on: CTSL1_2 9-mer FRET substrate Mca-ALFFSSPPSK-Dnp

Chain of Cathepsin L (CTSL1), recombinant human (chain, as listed by the source): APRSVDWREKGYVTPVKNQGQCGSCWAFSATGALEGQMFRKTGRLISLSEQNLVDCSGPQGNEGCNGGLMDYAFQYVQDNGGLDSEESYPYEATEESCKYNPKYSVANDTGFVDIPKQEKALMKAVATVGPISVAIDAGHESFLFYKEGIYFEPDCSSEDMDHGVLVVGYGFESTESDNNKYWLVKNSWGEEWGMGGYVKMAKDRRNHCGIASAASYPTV
Chain of ALU30-15 (chain, as listed by the source): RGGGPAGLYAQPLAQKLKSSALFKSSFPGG
Chain of ALU30-18 (chain, as listed by the source): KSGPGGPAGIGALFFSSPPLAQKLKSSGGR
Chain of ALU30-6 (chain, as listed by the source): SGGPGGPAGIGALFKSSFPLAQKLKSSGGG
Chain of ALU30-5 (chain, as listed by the source): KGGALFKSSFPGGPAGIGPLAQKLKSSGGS
Chain of ALU30-17 (chain, as listed by the source): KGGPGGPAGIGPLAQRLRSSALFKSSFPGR
Chain of ALU30-12 (chain, as listed by the source): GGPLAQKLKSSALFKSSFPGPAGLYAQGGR
Chain of ALU30-14 (chain, as listed by the source): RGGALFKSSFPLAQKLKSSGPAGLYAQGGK
Chain of ALU30-13 (chain, as listed by the source): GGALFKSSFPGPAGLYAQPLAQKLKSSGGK
Chain of ALU30-16 (chain, as listed by the source): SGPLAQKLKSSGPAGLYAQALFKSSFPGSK
Chain of ALU30-11 (chain, as listed by the source): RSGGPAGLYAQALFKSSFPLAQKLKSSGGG
Chain of ALU30-7 (chain, as listed by the source): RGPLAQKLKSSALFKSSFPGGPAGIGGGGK
Chain of ALU30-8 (chain, as listed by the source): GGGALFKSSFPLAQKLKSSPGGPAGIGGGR
Chain of ALU30-9 (chain, as listed by the source): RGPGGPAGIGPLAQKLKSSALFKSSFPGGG
Chain of ALU30-1 (chain, as listed by the source): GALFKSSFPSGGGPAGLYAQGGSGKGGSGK
Chain of ALU30-10 (chain, as listed by the source): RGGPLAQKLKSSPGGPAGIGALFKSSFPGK

Cathepsin L (CTSL1), recombinant human was tested, and the “30-mer substrate degradation (MSP-MS)” value (ALU30-12) was “Peptides bearing the MMP14_1 motif with CTSL1_1 and ADAM17_2 were slightly lower efficiency”, the “30-mer substrate degradation (MSP-MS)” value (ALU30-16) was “Peptides bearing the MMP14_1 motif with CTSL1_1 and ADAM17_2 were slightly lower efficiency” and the “30-mer substrate degradation (MSP-MS)” value (ALU30-10) was “The most efficiently cleaved peptides were those containing the FAPa_1, CTSL1_1 and ADAM17_2 motifs, in multiple orders”. The “30-mer substrate degradation (MSP-MS)” value (ALU30-5) was “The most efficiently cleaved peptides were those containing the FAPa_1, CTSL1_1 and ADAM17_2 motifs, in multiple orders”, the “30-mer substrate degradation (MSP-MS)” value (ALU30-17) was “CTSL1 treatment of the 30-mer peptide library produced cleavages in all peptides bearing a CTSL1_1 or CTSL1_2 motif” and the “30-mer substrate degradation (MSP-MS)” value (ALU30-1) was “CTSL1 treatment of the 30-mer peptide library produced cleavages in all peptides bearing a CTSL1_1 or CTSL1_2 motif”. For the same substance, the “30-mer substrate degradation (MSP-MS)” value (ALU30-7) was “The most efficiently cleaved peptides were those containing the FAPa_1, CTSL1_1 and ADAM17_2 motifs, in multiple orders”, the “30-mer substrate degradation (MSP-MS)” value (ALU30-11) was “Peptides bearing the MMP14_1 motif with CTSL1_1 and ADAM17_2 were slightly lower efficiency” and the “30-mer substrate degradation (MSP-MS)” value (ALU30-13) was “Peptides bearing the MMP14_1 motif with CTSL1_1 and ADAM17_2 were slightly lower efficiency”. The “30-mer substrate degradation (MSP-MS)” value (ALU30-14) was “Peptides bearing the MMP14_1 motif with CTSL1_1 and ADAM17_2 were slightly lower efficiency”, the FRET substrate cleavage [1] was “CTSL1 cleaves the FRET substrate bearing the CTSL1_1 motif highly efficiently” and the “30-mer substrate degradation (MSP-MS)” value (ALU30-8) was “The most efficiently cleaved peptides were those containing the FAPa_1, CTSL1_1 and ADAM17_2 motifs, in multiple orders”. For the same substance, the “30-mer cleavage (substrate disappearance and product formation)” value (ALU30-18) was “Both peptides showed rapid disappearance of substrate (squares) and product formation from cleavage at the target scissile bond”, the “30-mer substrate degradation (MSP-MS)” value (ALU30-18) was “CTSL1 treatment of the 30-mer peptide library produced cleavages in all peptides bearing a CTSL1_1 or CTSL1_2 motif” and the “30-mer cleavage (substrate disappearance and product formation)” value (ALU30-6) was “Both peptides showed rapid disappearance of substrate (squares) and product formation from cleavage at the target scissile bond”. The “30-mer substrate degradation (MSP-MS)” value (ALU30-6) was “The most efficiently cleaved peptides were those containing the FAPa_1, CTSL1_1 and ADAM17_2 motifs, in multiple orders”, the FRET substrate cleavage [2] was “the new CTSL1_2 motif was not cleaved in the context of an 8-mer FRET peptide” and the “FRET substrate cleavage, catalytic efficiency” value [3] was “This 9-mer FRET substrate bearing the CTSL1_2 motif produced comparable catalytic efficiency to the CTSL1_1 motif”. For the same substance, the “30-mer substrate degradation (MSP-MS)” value (ALU30-9) was “The most efficiently cleaved peptides were those containing the FAPa_1, CTSL1_1 and ADAM17_2 motifs, in multiple orders”, the “30-mer substrate degradation (MSP-MS)” value (ALU30-15) was “Peptides bearing the MMP14_1 motif with CTSL1_1 and ADAM17_2 were slightly lower efficiency” and the “cleavage efficiency of 30-mer library peptides” value (ALU30-15) was “lower CTSL1 activity”.

Source: patent publication US20210115102
